Assay results from the supplement of paper PMC7877785.
± gives the uncertainty stated by the source.

Test: self-splicing fitness, log relative to wild type (ln ratio); higher = more splicing; Tetrahymena group I intron in knt gene, E. coli kanamycin selection, DiMSum; sequences stand for … in CUCUCU…GGAGGGAAAAGUUAUCAGGCAUGCACCUGGUAGCUAGUCUUUAAACCAAUAGAUUGCAUCGGUUUAAAAGGCAAGACCGUCAAAUUGCGGGAAAGGGGUCAACAGCCGUUCAGUACCAAGUCUCAGGGGAAACUUUGAGAUGGCCUUGCAAAGGGUAUGGUAAUAAGCUGACGGACAUGGUCCUAACCACGCAGCCAAGUCCUAAGUCAACAGAUCUUCUGUUGAUAUGGAUGCAGUUCACAGACUAAAUGUCGGUCGGGGAAGAUGUAUUCUUCUCAUAAGAUAUAGUCGGACCUCUCCUUAAUGGGAGCUAGCGGAUGAAGUGAUGCAACACUGGAGCCGCUGGGAACUAAUUUGUAUGCGAAAGUAUAUUGAUUAGUUUUGGAGUACUCGUGGUCG
Summary of the method: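 Fitness was computed with DiMSum as the error-weighted combination of replicate fold changes, kanamycin versus none, each normalised to wild type. The library randomised all eight intron nucleotides of the P1ex region, with the intron placed in the knt kanamycin-resistance gene on pET-22b(+) in E. coli BL21(DE3). Six replicate transformations were grown overnight at 37°C or 30°C on LB agar with or without 25 μg/mL kanamycin, plus 100 μg/mL carbenicillin, 50 μM IPTG and 0.2% rhamnose. Pooled colonies were amplicon-sequenced on an Illumina HiSeq 2500.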

Sequence | self-splicing fitness (ln) (30 °C) | self-splicing fitness (ln) (37 °C)
CAGAAGCAAUAUUACGGUCG | -0.112 ± 0.075 | 0.395 ± 0.11
CAGAAGCAAUAUUACGUAAA | -4.01 ± 0.31 | -1.73 ± 0.16
CAGAAGCAAUAUUACGUAAC | -3.85 ± 0.27 | -2.26 ± 0.32
CAGAAGCAAUAUUACGUCCG | 0.0183 ± 0.11 | -0.0354 ± 0.13
CAGAAGCAAUAUUACGUCCU | -1.94 ± 0.18 | -0.858 ± 0.16
CAGAAGCAAUAUUACGUGAC | -3 ± 0.22 | -2.18 ± 0.21
CAGAAGCAAUAUUACGUGAU | -2.97 ± 0.14 | -1.26 ± 0.11
CAGAAGCAAUAUUACGUGGC | -3.7 ± 0.16 | -2.15 ± 0.15
CAGAAGCAAUAUUACGUUCU | -2.75 ± 0.11 | -1.88 ± 0.1
CAGAAGCAAUAUUACGUUUC | -3.38 ± 0.29 | -2.12 ± 0.23
CAGCAGCAAUAUUACGAAGU | -2.46 ± 0.14 | -2.03 ± 0.24
CAGCAGCAAUAUUACGACAC | -2.83 ± 0.23 | -2.45 ± 0.26
CAGCAGCAAUAUUACGACGG | -0.183 ± 0.064 | 0.472 ± 0.1
CAGCAGCAAUAUUACGACUC | -0.922 ± 0.091 | -0.00599 ± 0.14
CAGCAGCAAUAUUACGAGUG | -1.54 ± 0.056 | -0.155 ± 0.074
CAGCAGCAAUAUUACGAUGC | -4.05 ± 0.28 | -2.89 ± 0.34
CAGCAGCAAUAUUACGAUGG | -0.264 ± 0.07 | 0.177 ± 0.092
CAGCAGCAAUAUUACGCAGG | -2.56 ± 0.12 | -0.864 ± 0.11
CAGCAGCAAUAUUACGCCUA | -0.345 ± 0.076 | 0.522 ± 0.094

Sequence | self-splicing fitness (ln) (30 °C) | self-splicing fitness (ln) (37 °C)
CAGCAGCAAUAUUACGCUGC | -3.06 ± 0.22 | -2.36 ± 0.2
CAGCAGCAAUAUUACGGAUU | -3 ± 0.14 | -1.64 ± 0.13
CAGCAGCAAUAUUACGGCAG | -0.983 ± 0.079 | -0.261 ± 0.11
CAGCAGCAAUAUUACGGCCG | -0.67 ± 0.08 | -0.622 ± 0.12
CAGCAGCAAUAUUACGGCGU | -1.61 ± 0.07 | -0.859 ± 0.08
CAGCAGCAAUAUUACGGCUA | -0.235 ± 0.088 | 0.311 ± 0.13
CAGCAGCAAUAUUACGGCUC | -0.127 ± 0.081 | -0.486 ± 0.099
CAGCAGCAAUAUUACGGGUA | -3.24 ± 0.19 | -1.73 ± 0.13
CAGCAGCAAUAUUACGGUAU | -3.51 ± 0.15 | -2.62 ± 0.13
CAGCAGCAAUAUUACGGUUG | -3.04 ± 0.11 | -2.62 ± 0.23
CAGCAGCAAUAUUACGUAAA | -3.26 ± 0.14 | -1.95 ± 0.15
CAGCAGCAAUAUUACGUAUA | -2.42 ± 0.18 | -2.81 ± 0.29
CAGCAGCAAUAUUACGUGGU | -3.99 ± 0.19 | -2.93 ± 0.18
CAGCAGCAAUAUUACGUUCG | -0.171 ± 0.056 | 0.0532 ± 0.076
CAGGAGCAAUAUUACGACCU | -1.36 ± 0.13 | -0.563 ± 0.17
CAGGAGCAAUAUUACGAGAA | – | -0.522 ± 0.22
CAGGAGCAAUAUUACGAUAG | -1.19 ± 0.12 | -0.223 ± 0.13
CAGGAGCAAUAUUACGAUCG | -0.865 ± 0.08 | 0.258 ± 0.1
